The DeepSol protein solubility set

Assay: soluble on expression in E. coli; label from the status in PepcDB or PDB records

Soluble on expression in E. coli, not soluble:
MGSDKIHHHHHHMTDYFSYLGLQPSREELIQRFGLELDKLMTLDLNLTGRPSYLYSRERNGSGEASSTAFAQLLLDSLASKDVSILVTGWPVRSSIDVSIGEADGPIGAAAIARALHMTTGAVSLAMAPAPLAAQVAAAFRSAGATIIDFDAFERLSKGNERLFGVAIVGLDVDCDLSNYFAELLQNVKPKTVIAIEHYGFSAEGKPYHGTGNVVEPGTALTHPLFDQAMAEGLICGSCVDNPNEVGTSRLHDAGVKHPPMRNDFANLLVGSSANSAAFALCAALAGLSATPTAAFPGSLDEAGIAATLAHGAIDPFSGTADPSFGVDTIESPYHAWIADLMGRLAKGYCVAAATERHL, MGSDKIHHHHHHMTEGWDALDAELEQWAAAGLRLPLWWRDDDAVTPTDALTRLEAMATRLDLPVHLAVIPKAAEDALAQHVSQSSHLIPVVHGWAHVNHANPDKKTCEFPSTRPVDEALTDAEQGVERLKHLFGARLQPMFVPPWNRISPAMLPWLAGLGFAAISTYGPRKRTQAASGLVQINTHIDPIDWKGGRGLMPEAQILQKLVANLQARRSGQQDNAEPLGLLTHHLVHTDEVWEFCDTLLRRLLEGPAHPWRFNERIN, MGSDKIHHHHHHMTENQTAHVRALILDATPLITQSYTHYQNYAQSFYTTPTVFQEIKDAQARKNLEIWQSLGTLKLVHPSENSIAKVSTFAKLTGDYSVLSANDLHILALTYELEIKLNNGDWRLRKKPGDALDASKADVGTDGKQKLTEDNKKEEDSESVPKKKNKRRGGKKQKAKREAREAREAENANLELESKAEEHVEEAGSKEQICNDENIKESSDLNEVFEDADDDGDWITPENLTEAIIKDSGEDTTGSLGVEASEEDRHVALNRPENQVALATGDFAVQNVALQMNLNLMNFMSGLKIKRIRNYMLRCHACFKIFPLPKDGKPKHFCASCGGQGTLLRCAVSVDSRTGNVTPHLKSNFQWNNRGNRYSVASPLSKNSQKRYGKKGHVHSKPQENVILREDQKEYEKVIKQEEWTRRHNEKILNNWIGGGSADNYISPFAITGLKQHNVRIGKGRYVNSSKRRS, MGSDKIHHHHHHMTGVQFIDVTDSEAIFDDNQWDAVVLVTHGLDAIAQEELAMLASHGAQVDARVGRSTTLLFAPGLAGGRLIVAPVADGDSDIQDVRGYSDAARQGIKVAFDAGARRPLLIVTPSTQARYAQSMGVAALGCAQALWQSLERREVLGEMDNISQIGLLVDDKAGELLCAIEAGKHLARDLCGTEPERMSAPAFAQYCVDALEGLDLTMSVVEDRDVLERDYPLLSAVGRASFAVSRHQPRVVKLEYKAEGPIERSYFFAGKGVVYDTGGADLKVGGAMAGMSRDKGGAAAVAGLMKTLALLKPKGVRVVAELGLVRNSIGSEAFVTDEIITSHAGVRVRIGNTDAEGRLVLADLLSHLRLKAQDAVAPQLFSVATLTGHVVRAYGGYTAVVENAVARQQQVGDSLQTISEAWGEPIEVSRLRRDDYQKIVDPSGAADVLSSNNAPSSVTARGHQYPAAFLLKASGLEAHGLTSDKPLAYTHVDIAGSATEGDPLYGTPTAAPLVSLCQLIRG, MGSDKIHHHHHHMTIMILREIIDELSYQLKQRRIINVCVSPAYTSVMLDDQSIGISHTITDGEIEGAGEIIGKNAYDVVINNLDSNLQRSLSLAILNALGSMIDFTQGDPINLYSGGKLCVFGFSPQLSYSNFDSVIVYDFMSTENKKVGNTEIKPYSSLSREVCSTALIFASSIVNNTIDRIISQISANHLILTGISSVDAPITLKNHGFEVLGKLFPVEKYRVFRTICEGGSNKLLSKYIMRYFKKL, MGSDKIHHHHHHMTKFLIDSLQPKLVAQFARIIDRKQLAQSYLFVGPKGAGKLALAEWIALRLFCQNVQDGAPCGQCPECERILNHNHPDVMVVKTETQSIKVDDIRGLKQEMSKTGVEGNQRVFVVEDADKMTAGAANSLLKFFEEPVPGMTVILTATSKNQLLPTILSRAQVITFQSPDRSAVIAKLEEGGATSQMARVAGRLTGNVADAQALLASATFQDRVTKVFQLLERLADHDPESFVRVQTQLLPIAKDADSQRQVLALIGLAYADALNQHFQVTSMQQLDLPAIGVLAQRSSEQLTTALQAILTAQVRLSQNVTFQSATEQLMLKLLEG, MGSDKIHHHHHHMTKIKHIFSDLDGTLLDDQGKISKKTQEVIENSNLPFSLVSARAPQAMESLINQLNLKSSQVAFNGGLIFAKNEVIKANPMVHASAQELIKTIKKDYPEINLSLYSLSDWYVEKIDKDIEQEMQFTPQVPKLVDLETLITERPRLEIFKILLITPNESKLEEIKKHLEKLNFPDIIIQKTWETYLEITHLEAQKAKAVQFIAQREQLEQSELAAFGDNENDLSMLKAVGLPIVMANASDDLKKIGKVITKSNTEDGVAYGIQKYITDSLF, MGSDKIHHHHHHMTKKLTNQLIDVTSGRNFRELGGYETNSGKKIKMHKLLRTGNLADLSPFDKQFLTDYGVKYDVDFRSKEEVERQPDRVPDGVEYIYDPVFSEDLTNSSKSINDLNTQASDDADFGFNHMHYAYEDMIESESAQKAYRKFFDVLLKNDVEGESVIFHCTAGKDRTGFGALLILSALGVPFNTIKKDYLLTNITTKEFVESMVEHARQNGRNENVLQSIRDIQSVRAEYIDHAVKIINDDYGSIHNYLRDMMKLSSADIMKLRNIYLED, MGSDKIHHHHHHMTLEQLLMFNTVALAGSLKAASDKLHKTQPAISQSIKQLESQLDVVLFDRQGYRLALTQEGRKLLQYAQRVLNEAQEMRQVAKHLAIGNEASITLAFEASFNLARILPMLERTQLEFPHTQIILKQEYLTGALEALNQGKADIAISAGGIESMRSNHFELGFLFSGSLLDVASPRLLSRYPSLSHVKELVNEYQIVIQDTGTGTANIEFGVQAGQRRWYVNDFYTKKMLIQSGMGWGKLPYYMVEEALANGSLHPLELKERQNLIQLDYYVMRRPQSPLGPVAQALWENLVQLATKQS, MGSDKIHHHHHHMTLVASSCTDVLDQMPTTEDTSKEVYADAANYKKVLAKIYASYVLAGQGQGGDNGDLKSINKQDFSRGYFNLQEAATDEVANTWLSGNNLSDLTYISWDAKDSWVSDSYYWLFFNIALCNEFLRHCSDEEIARFSEAEQTEIRTFRSEARFMRSFSYWMVLDLYRQGPKVDENTPVIGYIPEAYDGIGMFDFIESELKELVAEGVSSALPATNEYGRASKPVAWALLARLYLNSAIYRGNVDTKYYTECITACKQVISNPAFYLEPEYAKLFNADNHKRTHEILFAMVCDATTSVTWGGGTYIICGSCGNSSTQDPAKYGLSNGWGMFRARGEMTAKFGDIATTKDSRAMFYTDGQAQFFTGAIDNQAEGYFFEKFSNLTDEGVAASNSAATGCSTDYPLLRLADIYLMAAEAQLRGGTGLSRAEALELVNQVRLRAYNQDESGKISDSDFTLDFILDERARELYLESVRRTDLIRFNKFVSADYIWQWKGGVLDGRAVNKKYNIYPIPDTDLTANPNLHNPLY, MGSDKIHHHHHHMTNENLCAGRNRYDGVSIDFFSDADLRAIDSATMDVFQNPGIQVSDAESRALFKEAGCDVNEKTMVVKIPEHVVRRAIMTAPSKITLYGREKQHTFTQQAGGKVHYTCFGTGVKMCKYEAPGVFKTVDSTEEDLANTARVCDWADNIDSYSLAVSARDWAGKGAQDVHETFTPLMNTSKHFFHIDPVGENVEYYWDILKAYYGGDEEQARSRPIFSELLCPTSPLKIGTNACQLILKSVNFGIPINVISMAMSGASCPVHLAGTLVTHNAEVLSGIVLAQLASPGAKVWYGSSTTAFDLKHGTAPVGSPELGLISAAVAKLGQYYDLPTYVAST, MGSDKIHHHHHHMTNLTSTHEVLAIGRLGVDIYPLQSGVGLADVQSFGKYLGGSAANVSVAAARHGHNSALLSRVGNDPFGEYLLAELERLGVDNQYVATDQTFKTPVTFCEIFPPDDFPLYFYREPKAPDLNIESADVSLDDVREADILWFTLTGFSEEPSRGTHREILTTRANRRHTIFDLDYRPMFWESPEEATKQAEWALQHSTVAVGNKEECEIAVGETEPERAGRALLERGVELAIVKQGPKGVMAMTKDETVEVPPFFVDVINGLGAGDAFGGALCHGLLSEWPLEKVLRFANTAGALVASRLECSTAMPTTDEVEASLNQKV, MGSDKIHHHHHHMTNPISLKDPLKLPCGAVIKNRLIKSAMSDSLADGEGNATNLQARLYERWAKSGLGLSVIGEVQVDPRFPEKPGNLVLADGMDLAALRELTSRAAINGAHIWPQLSHAGGLSHLPISQPKGPSALNISQFQCAGMSIDEIYQLPDMYAKSAMLAKDVGFTGVQIHAGHGFLLSQFLSPLFNHRQDQYGGSIEARCRIIVEIIAKVRSAVGDSFPIGIKINSTDQLEGGLTQEDALAAIRILDQTSLDLIEISGGSYFPGAKSSSDSSTKGPYFAEFAATAKRLSNVPIAVTGGFKTYAQALKVIESGAVDFVGLARALVITPELAKDWLIGTATAPSFPRFKAPPQGGITAWFTMLLTAIANDSEESFELELLPALHLYEELDDARCDKWMQKFEIK, MGSDKIHHHHHHMTNPTLAPQSDEYQQIHNGIVQLLDTARTQTVRSINTIMTATYWEMGRRIVEFEQGGEARAAYGEQLIDRLSQDLSQRYKRGFSASNLWQFKKFYLYFQKIEILQTVSGESLHLAQLAKSFPLPWSAYVRLLSVKNPNARTFYEKETLRNGWSVRQLDRQIATQFYERTLLSHDKSAMLQQPAPAEPNVLPEQAIRDPFILEFLNLKDEYSESDLEDALLSHLMDFMLELGDDFAFVGRQRRLRIDDSWFRVDLLFFHRRLRCLLLVDLKVGKFGYADAGQMNMYLNYAKEHWTMPGENPPVGLVLCAGKGAGEAHYALTGLPNTIMASEYKVQLPDEKLLTDELIRSQTMLETQLTRGGSLTTEKN, MGSDKIHHHHHHMTNRCLYCYEPLVDGEMDYHAKCCRKLFGTPQAPILPYTSSEVRALADEVVRSQTTVTGVQPKLSLDFDQMSNSPKRFTIVGLWGRFILKPQTERYSHLPELEDVSMHLAEIAKIETVPHGLMRFSDGELCYITRRIDRTGQGEKLPMEDMCQLSERLTEYKYKGSHEQVAKLISKYSSVPKLDLVKYWEQVLFSWLIGNADMHLKNYSLYAPEGNEYQLTPAYDLLSTALVIPEDTEELALTLCGKKRKLTRQHFLEAMTASGLDEKVCDNIFARFQHILPEWEACIRQSFLPTEMQRQYIEFILLKFSQI, MGSDKIHHHHHHMTNVIIEKISAKEVFKGAKIKVMITTMTNISIGYDIIEVNNPEEAIADVENVIAPELIGYPATDIDFIDSLICETSVNNPTVAMGISISVARAASNSLDIPLFKFLGGALTTELPIVASGILVDKDKNELIPIVMADSIEDIVNLYLKLTDVLSHDYSIVNIDGAYTCKDIFNEIPKIRNLIDEIKEDEDLDILLGLSSKKETVKDKDLSQIDYLEVEEPVEFDGFLCTDSIYEESDFVKVFPYEMGTITEMYYYINYIMDKGLYPVIFGNNSSFAHIAVSFKVPFLRPKLSSNVLNEVWNIERTIMNPNIRRF, MGSDKIHHHHHHMTPITQSEINKAAWGACDTFRGVVDPSIYKDYVLTMLFLKYVSDVWKDHKASYAAHYPDSPELVAAMMERETFKLPETASFDALHGRRHEPGNGERIDKALHAIEEANGSKLRDVFQDISFNSNKLGDEEQKNDILRHLLEDFAKTALDLRPSRVGNLDIIGGAYEYLISRFAATAGKKAGEFYTPAEVSELMARLVDPQPGDDICDPTCGSASLLMKCGRLIREGGSKAYALFGQEAIGSTWALAKMNLFLHGEENHQIEWGDTIRNPKLRTSDDMLRHFDVVVANPPFSLDKWGVESAEADKFARFRRGIPPKTKGDYAFILHMIETLKPKTGRMAVVVPHGVLFRGSSEGKIRHKLIEDNLLDAVIGLPEKLFFGTGIPSAILVFRKDKADDSVLFVDASREFVAGTNQNALDMTLIEKIVATHQTRQTVEKYAYRATLAEIIENDFNLNIPRYVDTFEEEEEIDLMAVRAERMKLKGEMAELEDRMEGYLQELGY
